# From PMC3747071
# Target: HA-tagged GW182 (Drosophila) (UniProt Q8SY33)
# Experiment: co-IP; lysate of stable S2 cells expressing HA-GW182 and Myc-HPat, treated with dsRNA against YFP (control), AGO1, NOT1, EDC4 and DCP1, or XRN1; anti-HA antibody (12CA5) cross-linked to protein A sepharose; washes with NET buffer with 300 mM NaCl; quantitative Western blot
# UniProt Q8SY33, sequence (Q8SY33 whole entry): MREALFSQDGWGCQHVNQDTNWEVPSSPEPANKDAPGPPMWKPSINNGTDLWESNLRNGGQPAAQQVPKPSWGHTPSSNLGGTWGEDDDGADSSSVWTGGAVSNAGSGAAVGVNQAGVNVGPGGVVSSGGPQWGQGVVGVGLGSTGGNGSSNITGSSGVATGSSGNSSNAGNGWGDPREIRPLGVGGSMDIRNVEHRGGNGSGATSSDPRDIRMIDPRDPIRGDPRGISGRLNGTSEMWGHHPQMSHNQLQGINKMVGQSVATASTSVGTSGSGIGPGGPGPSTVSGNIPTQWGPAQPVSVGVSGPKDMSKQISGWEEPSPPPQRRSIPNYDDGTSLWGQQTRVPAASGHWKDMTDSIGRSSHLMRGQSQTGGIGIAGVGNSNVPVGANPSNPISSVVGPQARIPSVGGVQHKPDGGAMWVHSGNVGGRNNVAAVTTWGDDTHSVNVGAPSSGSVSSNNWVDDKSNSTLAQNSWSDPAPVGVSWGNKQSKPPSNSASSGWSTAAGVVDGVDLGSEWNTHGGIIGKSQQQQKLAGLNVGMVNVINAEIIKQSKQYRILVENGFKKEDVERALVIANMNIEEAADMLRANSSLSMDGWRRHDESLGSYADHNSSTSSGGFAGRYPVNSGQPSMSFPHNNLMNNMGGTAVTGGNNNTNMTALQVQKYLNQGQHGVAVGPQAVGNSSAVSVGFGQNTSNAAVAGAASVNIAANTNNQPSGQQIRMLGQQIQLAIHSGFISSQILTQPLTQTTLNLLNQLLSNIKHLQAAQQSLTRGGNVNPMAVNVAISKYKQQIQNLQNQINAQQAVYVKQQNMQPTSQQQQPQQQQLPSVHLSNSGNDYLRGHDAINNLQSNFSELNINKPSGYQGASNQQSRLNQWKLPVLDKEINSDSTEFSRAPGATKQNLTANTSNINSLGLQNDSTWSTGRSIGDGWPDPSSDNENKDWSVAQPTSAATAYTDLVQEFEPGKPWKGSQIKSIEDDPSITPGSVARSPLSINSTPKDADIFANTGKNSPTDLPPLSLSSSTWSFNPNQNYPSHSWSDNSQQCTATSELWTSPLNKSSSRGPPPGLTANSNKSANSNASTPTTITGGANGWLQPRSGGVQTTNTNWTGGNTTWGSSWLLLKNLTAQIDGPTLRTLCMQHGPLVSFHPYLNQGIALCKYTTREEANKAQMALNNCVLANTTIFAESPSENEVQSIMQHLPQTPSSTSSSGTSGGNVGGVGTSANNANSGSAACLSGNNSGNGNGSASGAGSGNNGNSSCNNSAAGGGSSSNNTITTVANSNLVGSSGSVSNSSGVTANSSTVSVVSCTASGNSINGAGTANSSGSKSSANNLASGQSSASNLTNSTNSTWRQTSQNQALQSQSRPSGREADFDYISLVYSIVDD
substance,measurement,value
Myc-tagged HPat (natural protein),"decrease of the Myc-HPat/HA-GW182 ratio in the immunoprecipitate, AGO1 knockdown cells against dsYFP control cells",84.6%
same,"decrease of the Myc-HPat/HA-GW182 ratio in the immunoprecipitate, NOT1 knockdown cells against dsYFP control cells",69.7%
